The target of experiment [1] is SARS-CoV-2 S receptor binding domain, Ancestral (SARS-CoV-2, Ancestral strain, UniProt P0DTC2).
Experiment [2] concerns the target ADDoCoV (ADDomer-COVID-19 vaccine) nanoparticle (human adenovirus serotype Ad3 | …, UniProt P0DTC2).

B1: ADAH15 (VHH)
VHH: QVQLQESGGGLVQAGGSLRLSCAASGTTYLAANMGWFRQAPGKEREFVAAITFFHNPTVYYADSVKGRFTISRDNAKNTVYLQMNSLKPEDTAVYYCAATVLVRDRIHFSHSIGIRYWGQGTQVTVSS
Turning to B1, the binding result in experiment [1] and in experiment [2] was “binds” in each case.

B2: ADAH14 (VHH)
VHH: QVQLQESGGGLVQAGGSLRLSCAASGSYFFHALMGWFRQAPVKEREFVASITAVPGATYYRRCTDSVKGRFTISRDNAKNTVYLQMNSLKPEDTAVYYCALATHSNRHTPITYWGQGTQVTVSS
Turning to B2, the binding result in experiment [1] and in experiment [2] was “binds” throughout.

Values taken from article PMC10702856 (Antibody Therapeutics, 2023).
